Laboratory results: ChEMBL document CHEMBL1142227, “Structural basis for the high all-trans-retinaldehyde reductase activity of the tumor marker AKR1B10” (Proc Natl Acad Sci U S A, 2007)

How the values were obtained:
[1] = test system: CC1=C(/C=C/C(C)=C/C=C/C(C)=C/C=O)C(C)(C)CCC1; assay: (§1) Ratio of Kcat to Km for human AKR1B1
O=CC(O)CO [2] = assay: as §1
[3] = test system: CC1=C(/C=C/C(C)=C\C=C\C(C)=C\C=O)C(C)(C)CCC1; assay: as §1
[4] = test system: CC1=C(/C=C/C(C)=C/C=C/C(C)=C/C=O)C(C)(C)CCC1; assay: (§2) Activity of human AKR1B1 by BSA/HPLC method
O=CC(O)CO [5] = assay: as §2
[6] = test system: CC1=C(/C=C/C(C)=C\C=C\C(C)=C\C=O)C(C)(C)CCC1; assay: as §2
[7] = test system: CC1=C(/C=C/C(C)=C/C=C/C(C)=C/C=O)C(C)(C)CCC1; assay: (§3) Activity of human AKR1B1 by Tween 80 / spectrophotometer method
[8] = test system: CC1=C(/C=C/C(C)=C/C=C/C(C)=C/C=O)C(C)(C)C[C@@H](O)C1; assay: as §3
[9] = test system: CC1=C(/C=C/C(C)=C/C=C/C(C)=C/C=O)C(C)(C)CCC1; assay: (§4) Activity of human AKR1B10 K125L mutant by Tween 80 / spectrophotometer method
[10] = test system: CC1=C(/C=C/C(C)=C/C=C/C(C)=C/C=O)C(C)(C)C[C@@H](O)C1; assay: as §4
[11] = test system: CC1=C(/C=C/C(C)=C/C=C/C(C)=C/C=O)C(C)(C)CCC1; assay: (§5) Ratio of Kcat to Km for human AKR1B10 K125L mutant
O=CC(O)CO [12] = assay: as §5
[13] = test system: CC1=C(/C=C/C(C)=C\C=C\C(C)=C\C=O)C(C)(C)CCC1; assay: as §5
[14] = test system: CC1=C(/C=C/C(C)=C/C=C/C(C)=C/C=O)C(C)(C)CCC1; assay: (§6) Activity of human AKR1B10 K125L mutant by BSA/HPLC method
O=CC(O)CO [15] = assay: as §6
[16] = test system: CC1=C(/C=C/C(C)=C\C=C\C(C)=C\C=O)C(C)(C)CCC1; assay: as §6
[17] = biological target: Aldo-keto reductase family 1 member B10 (Homo sapiens) (UniProt O60218); assay: Inhibition of retinaldehyde reductase activity of human AKR1B10 expressed in COS7 cells at 1 uM relative to control; assay type: cell-based; set-up: scale not given: the % may be the effect or the level left; conditions: COS-7
[18] = test system: CC1=C(/C=C/C(C)=C/C=C/C(C)=C/C=O)C(C)(C)CCC1; assay: (§7) Ratio of Kcat to Km for human AKR1B10 K125L/V301L mutant
O=CC(O)CO [19] = assay: as §7
[20] = test system: CC1=C(/C=C/C(C)=C/C=C/C(C)=C/C=O)C(C)(C)CCC1; assay: (§8) Activity of human AKR1B10 K125L/V301L mutant by BSA/HPLC method
O=CC(O)CO [21] = assay: as §8
[22] = test system: CC1=C(/C=C/C(C)=C/C=C/C(C)=C/C=O)C(C)(C)CCC1; assay: (§9) Activity of human AKR1B10 V301L mutant by BSA/HPLC method
O=CC(O)CO [23] = assay: as §9
[24] = test system: CC1=C(/C=C/C(C)=C\C=C\C(C)=C\C=O)C(C)(C)CCC1; assay: as §9
[25] = test system: CC1=C(/C=C/C(C)=C/C=C/C(C)=C/C=O)C(C)(C)CCC1; assay: (§10) Ratio of Kcat to Km for human AKR1B10 V301L mutant
O=CC(O)CO [26] = assay: as §10
[27] = test system: CC1=C(/C=C/C(C)=C\C=C\C(C)=C\C=O)C(C)(C)CCC1; assay: as §10
[28] = test system: CC1=C(/C=C/C(C)=C/C=C/C(C)=C/C=O)C(C)(C)CCC1; assay: (§11) Activity of human wild type AKR1B10 by BSA/HPLC method
O=CC(O)CO [29] = assay: as §11
[30] = test system: CC1=C(/C=C/C(C)=C\C=C\C(C)=C\C=O)C(C)(C)CCC1; assay: as §11
[31] = test system: CC1=C(/C=C/C(C)=C/C=C/C(C)=C/C=O)C(C)(C)CCC1; assay: (§12) Activity of human wild type AKR1B10 by Tween 80 / spectrophotometer method
[32] = test system: CC1=C(/C=C/C(C)=C/C=C/C(C)=C/C=O)C(C)(C)C[C@@H](O)C1; assay: as §12
[33] = test system: CC1=C(/C=C/C(C)=C/C=C/C(C)=C/C=O)C(C)(C)CCC1; assay: (§13) Ratio of Kcat to Km for human wild type AKR1B10
O=CC(O)CO [34] = assay: as §13
[35] = test system: CC1=C(/C=C/C(C)=C\C=C\C(C)=C\C=O)C(C)(C)CCC1; assay: as §13

Sequence of Aldo-keto reductase family 1 member B10 (Homo sapiens), O60218 K125L (O60218 whole entry K125L): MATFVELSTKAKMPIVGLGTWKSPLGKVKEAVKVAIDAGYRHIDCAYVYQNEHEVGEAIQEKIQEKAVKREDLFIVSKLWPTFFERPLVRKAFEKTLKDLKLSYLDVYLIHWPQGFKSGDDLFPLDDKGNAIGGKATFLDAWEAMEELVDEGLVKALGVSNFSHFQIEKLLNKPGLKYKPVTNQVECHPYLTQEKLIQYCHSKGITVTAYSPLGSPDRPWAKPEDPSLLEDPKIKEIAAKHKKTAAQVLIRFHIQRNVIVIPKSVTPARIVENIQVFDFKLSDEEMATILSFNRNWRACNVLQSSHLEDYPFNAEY
Sequence of Aldo-keto reductase family 1 member B10 (Homo sapiens), O60218 V301L (O60218 whole entry V301L): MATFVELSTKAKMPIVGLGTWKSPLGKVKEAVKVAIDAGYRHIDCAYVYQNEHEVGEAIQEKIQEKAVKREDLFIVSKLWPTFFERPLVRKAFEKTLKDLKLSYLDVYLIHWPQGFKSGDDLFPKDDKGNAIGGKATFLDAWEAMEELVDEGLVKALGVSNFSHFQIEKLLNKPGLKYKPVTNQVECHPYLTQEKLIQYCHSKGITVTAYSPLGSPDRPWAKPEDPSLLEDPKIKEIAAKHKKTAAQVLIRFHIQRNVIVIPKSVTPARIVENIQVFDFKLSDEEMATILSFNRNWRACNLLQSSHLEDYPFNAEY
Sequence of Aldo-keto reductase family 1 member B10 (Homo sapiens), O60218 K125L,V301L (O60218 whole entry K125L/V301L): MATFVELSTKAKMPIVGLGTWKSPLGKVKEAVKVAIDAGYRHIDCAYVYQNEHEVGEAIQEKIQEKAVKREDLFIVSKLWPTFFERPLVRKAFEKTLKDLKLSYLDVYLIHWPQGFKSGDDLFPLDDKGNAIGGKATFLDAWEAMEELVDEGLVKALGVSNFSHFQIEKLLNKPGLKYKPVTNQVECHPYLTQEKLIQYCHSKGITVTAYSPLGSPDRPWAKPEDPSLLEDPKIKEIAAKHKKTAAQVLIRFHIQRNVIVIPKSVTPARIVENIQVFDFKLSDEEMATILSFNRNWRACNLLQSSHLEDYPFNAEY
Sequence of Aldo-keto reductase family 1 member B10 (Homo sapiens), O60218 (O60218 whole entry): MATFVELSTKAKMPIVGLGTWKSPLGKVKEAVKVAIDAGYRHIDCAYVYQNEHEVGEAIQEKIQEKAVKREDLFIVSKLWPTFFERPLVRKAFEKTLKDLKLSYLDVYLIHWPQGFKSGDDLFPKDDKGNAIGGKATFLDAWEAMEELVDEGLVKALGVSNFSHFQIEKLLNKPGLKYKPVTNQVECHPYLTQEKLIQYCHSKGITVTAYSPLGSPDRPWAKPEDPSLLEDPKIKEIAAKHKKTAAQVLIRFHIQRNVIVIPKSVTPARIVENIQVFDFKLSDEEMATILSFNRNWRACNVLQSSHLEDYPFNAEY
Sequence of Aldo-keto reductase family 1 member B10 (Homo sapiens) (O60218 whole entry, looked up): as the sequence (O60218 whole entry) above

What does the source list for “Aldo-keto reductase family 1 member B1 (Homo sapiens) (from UniProt P15121)”?
kcat/Km [1]: 5330 M⁻¹ s⁻¹; kcat/Km (O=CC(O)CO [2]): 11000 M⁻¹ s⁻¹; kcat/Km [3]: 25000 M⁻¹ s⁻¹; Km [4]: 1.1 µM; kcat [4]: 0.00583 s⁻¹; Km (O=CC(O)CO [5]): 50 µM; kcat (O=CC(O)CO [5]): 0.517 s⁻¹; Km [6]: 0.4 µM; kcat [6]: 0.0117 s⁻¹; kcat [7]: 0.00617 s⁻¹; kcat [8]: 0.0967 s⁻¹

With “Aldo-keto reductase family 1 member B10 (Homo sapiens), O60218 K125L” as the compound, how does the kcat [9] read?
Its kcat is 0.0733 s⁻¹.

What about the kcat [10] of the same compound?
Its kcat is 0.308 s⁻¹.

What about the kcat/Km [11] of the same compound?
The kcat/Km was 218000 M⁻¹ s⁻¹.

And the kcat/Km (O=CC(O)CO [12])?
Its kcat/Km is 117 M⁻¹ s⁻¹.

What about the kcat/Km [13] of the same compound?
The kcat/Km was 21700 M⁻¹ s⁻¹.

What about the Km [14] of the same compound?
The Km was 0.15 µM.

And the kcat [14]?
Its kcat is 0.0333 s⁻¹.

And the Km (O=CC(O)CO [15])?
The Km was 5200 µM.

And the kcat (O=CC(O)CO [15])?
Its kcat is 0.593 s⁻¹.

And the Km [16]?
The Km was 0.7 µM.

What about the kcat [16] of the same compound?
The kcat was 0.015 s⁻¹.

How did the Activity [17] turn out when `COc1ccc2c(C(=S)N(C)CC(=O)O)cccc2c1C(F)(F)F` was run?
Its Activity is 50%.

For “Aldo-keto reductase family 1 member B10 (Homo sapiens), O60218 K125L,V301L”, which kcat/Km [18] is on record?
The kcat/Km was 58300 M⁻¹ s⁻¹.

What about the kcat/Km (O=CC(O)CO [19]) of the same compound?
Its kcat/Km is 81.7 M⁻¹ s⁻¹.

And the Km [20]?
Its Km is 1 µM.

And the kcat [20]?
The kcat was 0.0583 s⁻¹.

What about the Km (O=CC(O)CO [21]) of the same compound?
Its Km is 7300 µM.

And the kcat (O=CC(O)CO [21])?
The kcat was 0.59 s⁻¹.

For “Aldo-keto reductase family 1 member B10 (Homo sapiens), O60218 V301L”, which Km [22] is on record?
Its Km is 0.6 µM.

And the kcat [22]?
The kcat was 0.128 s⁻¹.

What about the Km (O=CC(O)CO [23]) of the same compound?
The Km was 6000 µM.

And the kcat (O=CC(O)CO [23])?
Its kcat is 0.683 s⁻¹.

And the Km [24]?
The Km was 0.3 µM.

And the kcat [24]?
Its kcat is 0.01 s⁻¹.

And the kcat/Km [25]?
Its kcat/Km is 212000 M⁻¹ s⁻¹.

And the kcat/Km (O=CC(O)CO [26])?
The kcat/Km was 117 M⁻¹ s⁻¹.

What about the kcat/Km [27] of the same compound?
Its kcat/Km is 30000 M⁻¹ s⁻¹.

“Aldo-keto reductase family 1 member B10 (Homo sapiens), O60218” was tested. Which Km [28] did it give?
The Km was 0.6 µM.

What about the kcat [28] of the same compound?
The kcat was 0.45 s⁻¹.

What about the Km (O=CC(O)CO [29]) of the same compound?
Its Km is 6000 µM.

What about the kcat (O=CC(O)CO [29]) of the same compound?
The kcat was 0.583 s⁻¹.

And the Km [30]?
The Km was 0.7 µM.

And the kcat [30]?
Its kcat is 0.015 s⁻¹.

What about the kcat [31] of the same compound?
Its kcat is 0.297 s⁻¹.

What about the kcat [32] of the same compound?
Its kcat is 0.288 s⁻¹.

What about the kcat/Km [33] of the same compound?
Its kcat/Km is 750000 M⁻¹ s⁻¹.

And the kcat/Km (O=CC(O)CO [34])?
Its kcat/Km is 100 M⁻¹ s⁻¹.

And the kcat/Km [35]?
The kcat/Km was 21700 M⁻¹ s⁻¹.
